The values that follow come from paper PMC6135763 (Nature Communications, 2018).

Test [1] has as its target T1, Importin α3ΔIBB (residues 64–521) (human, UniProt O00629 64-521).
T1 construct: also called Impα3; KPNA4
T1 sequence (looked up): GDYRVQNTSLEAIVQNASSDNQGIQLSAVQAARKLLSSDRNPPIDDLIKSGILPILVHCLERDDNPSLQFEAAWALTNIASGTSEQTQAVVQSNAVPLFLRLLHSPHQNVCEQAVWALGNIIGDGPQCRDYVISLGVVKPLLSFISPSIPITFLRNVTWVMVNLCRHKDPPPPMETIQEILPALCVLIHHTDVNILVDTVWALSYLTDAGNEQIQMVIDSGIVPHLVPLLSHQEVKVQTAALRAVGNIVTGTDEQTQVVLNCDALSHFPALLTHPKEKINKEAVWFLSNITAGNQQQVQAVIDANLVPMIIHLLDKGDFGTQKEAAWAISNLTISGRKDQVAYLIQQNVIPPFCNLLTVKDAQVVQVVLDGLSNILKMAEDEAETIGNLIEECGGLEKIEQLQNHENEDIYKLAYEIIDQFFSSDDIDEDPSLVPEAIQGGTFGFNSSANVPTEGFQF
As to the kind of experiment: ELISA. The conditions noted are these: both partners purified. (In general: ELISA stands for enzyme-linked immunosorbent assay.)

The target in test [2] is Importin α7ΔIBB (residues 73–536) (human, UniProt O60684 73-536). As to the kind of experiment: ELISA. Conditions: both partners purified.
Chain of Importin α7ΔIBB (residues 73–536) (O60684 73-536, stated change not applied): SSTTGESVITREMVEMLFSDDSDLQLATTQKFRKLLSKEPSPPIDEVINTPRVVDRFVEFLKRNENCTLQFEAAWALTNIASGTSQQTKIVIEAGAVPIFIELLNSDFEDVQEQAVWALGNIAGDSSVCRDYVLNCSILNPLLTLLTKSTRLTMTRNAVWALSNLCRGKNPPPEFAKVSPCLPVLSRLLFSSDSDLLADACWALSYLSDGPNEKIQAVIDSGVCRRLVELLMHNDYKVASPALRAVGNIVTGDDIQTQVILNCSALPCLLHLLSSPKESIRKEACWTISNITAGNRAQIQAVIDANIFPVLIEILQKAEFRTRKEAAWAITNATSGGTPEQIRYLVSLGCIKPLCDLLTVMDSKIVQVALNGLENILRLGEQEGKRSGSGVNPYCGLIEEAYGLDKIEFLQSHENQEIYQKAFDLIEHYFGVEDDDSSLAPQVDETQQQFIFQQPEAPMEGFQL

The Kd is the free concentration of one partner at which half of the binding sites on the other are occupied at equilibrium, for simple one-to-one binding. Higher therefore signals weaker binding. With RNIHLLGRKTCLGRRVVQPGMFEDHPPTKKARVSMRRMSN (domain or fragment) [GST-NiV W (C-terminal NLS domain of Nipah virus W protein, residues 411–450, GST fusion)], the Kd in test [1] was 14.4 nM; in test [2], 1100 nM.

RSLNMLGRKTCLGRRVVQPGMFADYPPTKKARVLLRRMSN (domain or fragment) [GST-HeV W (C-terminal NLS domain of Hendra virus W protein, residues 409–448, GST fusion)]: the Kd in test [1] worked out at 19.9 nM; in test [2], 1500 nM.
